Kd data for two molecules are collected here from publication PMC3777412 (Nature communications, 2013).

Where no end group is shown, it is not given here. [ ]: non-standard residue; d: D form. The star is where a group is joined. Biotin = O=C1N[C@H]2[C@H](CS[C@H]2CCCCC(=O)*)N1; pY = N[C@@H](Cc1ccc(OP(=O)(O)O)cc1)C(=O)O

The target in this assay is Grb2, histidine-tagged, purified (UniProt P62993 1-217). The assay can be described thus: SPR.
Sequence of Grb2, histidine-tagged, purified (P62993 whole entry): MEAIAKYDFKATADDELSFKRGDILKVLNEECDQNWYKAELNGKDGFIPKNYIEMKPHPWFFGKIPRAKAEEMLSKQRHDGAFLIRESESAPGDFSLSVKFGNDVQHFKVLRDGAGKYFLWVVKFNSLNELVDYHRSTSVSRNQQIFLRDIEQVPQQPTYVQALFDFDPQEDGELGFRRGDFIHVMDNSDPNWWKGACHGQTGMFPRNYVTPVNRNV

By Kd is commonly meant the constant that tells how readily two partners part at equilibrium. A lower Kd goes with a tighter complex. Turning to Biotin-ASASAKGHE[pY]TNIKYS [pY542 peptide], the dissociation constant (Kd) came out at 118 ± 10.3 nM. The molecule Biotin-ASASASARV[pY]ENVGLM [pY580 peptide] returned an equilibrium dissociation constant (Kd) of 68.5 ± 8.7 nM.
